The target of the data set is T1, SB transposase N123 (N-terminal DNA-binding domain, residues 1-123) (synthetic (salmonid consensus)).
T1 chain: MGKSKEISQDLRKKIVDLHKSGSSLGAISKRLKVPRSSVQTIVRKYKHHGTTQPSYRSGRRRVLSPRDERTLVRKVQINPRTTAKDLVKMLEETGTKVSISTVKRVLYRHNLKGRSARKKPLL
Kind of data set: footprint; DNase I, 30-bp protected region within left IR probe. Conditions: tags: C-terminal His tag (pET21a). The protocol:
In addition to the NLS function, N123 also contains the specific DNA-binding domain of SB, as tested in a mobility-shift assay (FIG. 3B). A 300 bp EcoRI/HindIII fragment of pT comprising the left inverted repeat of the element was end-labeled using [α³²P]dCTP and Klenow. Nucleoprotein complexes were formed in 20 mM HEPES (pH 7.5), 0.1 mM EDTA, 0.1 mg/ml BSA, 150 mM NaCl, 1 mM DTT in a total volume of 10 μl. Reactions contained 100 pg labeled probe, 2 μg poly[dI][dC] and 1.5 μl N123. After 15 min incubation on ice, 5 μl of loading dye containing 50% glycerol and bromophenol blue was added and the samples loaded onto a 5% polyacrylamide gel (Ausubel). DNaseI footprinting was done using a kit from BRL according to the recommendations of the manufacturer. […]
The number of the deoxyribonucleoprotein complexes detected by the mobility-shift assay at increasingly higher N123 concentrations indicated two protein molecules bound per IR (FIG. 3B, right panel), consistent with either two binding sites for transposase within the IR or a transposase dimer bound to a single site. Transposase-binding sites were further analyzed and mapped in a DNasel footprinting experiment. […]

B1: salmonid outer transposase-binding site (dsDNA)
DNA 1: GTTGAAGTCGGAAGTTTACATACACTTAGG
DNA 2: CCTAAGTGTATGTAAACTTCCGACTTCAAC
Turning to B1, the binding result is on record as “binds”.

B2: salmonid internal transposase-binding site (dsDNA)
DNA 1: CCAGTGGGTCAGAAGTTTACATACACTAAG
DNA 2: CTTAGTGTATGTAAACTTCTGACCCACTGG
For B2, the binding result was “binds”.
